In paper PMC7486241 (Cell Host & Microbe, 2020):
Like-named read-outs stand apart in the source and are kept apart here.

What was measured:
[1] = molecular target: H7N9 A/Shanghai/02/2013 hemagglutinin (HA), biotinylated recombinant (Influenza A virus A/Shanghai/02/2013 …, UniProt R4NN21, biotin); assay: BLI; settings: both partners purified
[2] = molecular target: H3N2 A/Texas/50/2012 hemagglutinin (HA), biotinylated recombinant (influenza A virus A/Texas/50/2012 (H3N2), biotin); assay: BLI; settings: both partners purified
[3] = molecular target: H9N2 A/Hongkong/1073/1999 hemagglutinin (HA), biotinylated recombinant (influenza A virus A/Hongkong/1073/1999 …, biotin); assay: BLI; settings: both partners purified
[4] = molecular target: recombinant HA of H7N9 A/Shanghai/02/2013, biotinylated (Influenza A virus A/Shanghai/02/2013 …, UniProt R4NN21, strain, biotin); assay: Meso Scale Discovery (MSD) electrochemiluminescence binding assay; settings: both partners purified
[5] = molecular target: T1, recombinant HA of H1N1 A/California/04/2009, biotinylated (Influenza A virus A/California/04/2009 …, UniProt C3W5S1, strain, biotin); assay: as above; settings: both partners purified
T1 construct: source: plasmid pCMV/R-HA-AviHis, Andrews et al., 2017

[6] = molecular target: T2, HA ectodomain of A/California/04/2009 (H1N1), cleaved mature HA (HA1/HA2) (influenza A virus A/California/04/2009 …); assay: crystal structure; settings: both partners purified
T2 construct: copies: 3 + 3

[7] = molecular target: T3, recombinant HA of H5N1 A/Indonesia/05/2005, biotinylated (Influenza A virus A/Indonesia/05/2005 …, UniProt C5MRF2, strain, biotin); assay: Meso Scale Discovery (MSD) electrochemiluminescence binding assay; settings: both partners purified
[8] = molecular target: T1, recombinant HA of H1N1 …
[9] = molecular target: T3, recombinant HA of H5N1 …
[10] = molecular target: recombinant HA of H1N1 A/New Caledonia/20/1999, biotinylated (Influenza A virus A/New …, UniProt Q6WG00, strain, biotin); assay: Meso Scale Discovery (MSD) electrochemiluminescence binding assay; settings: both partners purified
[11] = molecular target: recombinant HA of H3N2 A/Texas/50/2012, biotinylated (Influenza A virus A/Texas/50/2012 (H3N2), UniProt R4L1D1, strain, biotin); assay: as above; settings: both partners purified
[12] = molecular target: T4, recombinant HA of H3N2 A/Hongkong/1/1968, biotinylated (Influenza A virus A/Hong Kong/1/1968 …, UniProt Q91MA7, strain, biotin); assay: as above; settings: both partners purified
T4 construct: source: plasmid pCMV/R-HA-AviHis, Andrews et al., 2017

[13] = molecular target: recombinant HA of H9N2 A/Hongkong/1073/1999, biotinylated (Influenza A virus A/Hong Kong/1073/1999 …, UniProt Q9ICY5, strain, biotin); assay: as above; settings: both partners purified

B1: 58-6E11 Fab (Fab, V domains shown)
VH: QVQLPQSGPGLVKPSQTLSLTCAISGDSVSSNSAVWTWIRQSPSRGLEWLGRTYYRSKWYNDYAVSVESRITINPDTSKNQFSLQLKSVTPEDTAVYFCARSGITIFGVSVMAMDIWGQGTTVIVSS
VL: EIVLTQSPGTLSLSPGERATLSCRASQNVAVSYLAWYQQKPGQPPRLLIYGASSRATGIPGRFTGSGSGTDFTLTINRLEPEDSAVYYCQQYATSPRALTFGGGTKVEIK
binding result [1]: no binding (tested: 3200 nM (highest Fab concentration))
binding result [2]: no binding (tested: 3200 nM (highest Fab concentration))
binding result [3]: no binding (tested: 3200 nM (highest Fab concentration))

B2: 54-1G05 VL early intermediate, IgG (54-1G05 VH paired with VL from the early intermediate of clonotype B) (antibody, V domains shown)
VH: QVQLQQSGPRLVKPSQTLSLTCAISGDSVSSSSAVWTWIRQSPSRGLEWLGRTYYRSKWYDDYAVSVQGRITINPDTSKNQISLQLNSVTPDDTAVYYCARSSINIFGVFVMAMDVWGQGTAVTVSS
VL: EIVLTQSPGTLSLSPGERATLSCRASQNVAVSYLAWYQQKPGQPPRLLIYGASSRATGIPDRFTGSGSGTDFTLTINRLEPEDSAVYYCQQYGSSPRALTFGGGTKVEIK
notes: IgG format
binding result [4]: binds

B3: early intermediate of clonotype B, IgG (antibody, V domains shown)
VH: QVQLQQSGPGLVKPSQTLSLTCAISGDSVSSNSAVWTWIRQSPSRGLEWLGRTYYRSKWYNDYAVSVKSRITINPDTSKNQFSLQLKSVTPEDTAVYYCARSGITIFGVIIMAMDIWGQGTTVTVSS
VL: EIVLTQSPGTLSLSPGERATLSCRASQNVAVSYLAWYQQKPGQPPRLLIYGASSRATGIPDRFTGSGSGTDFTLTINRLEPEDSAVYYCQQYGSSPRALTFGGGTKVEIK
binding result [5]: binds

B4: ClonB UCA Fab (Fab, V domains shown)
VH: QVQLQQSGPGLVKPSQTLSLTCAISGDSVSSNSAVWTWIRQSPSRGLEWLGRTYYRSKWYNDYAVSVKSRITINPDTSKNQFSLQLKSVTPEDTAVYYCARSGITIFGVIIMAMDIWGQGTTVTVSS
VL: EIVLTQSPGTLSLSPGERATLSCRASQNVAVSYLAWYQQKPGQPPRLLIYGASSRATGIPDRFTGSGSGTDFTLTINRLEPEDSAVYYCQQYGSSPRALTFGGGTKVEIK
notes: also called early intermediate of clonotype B; EI (clonotype B)
binding result [2]: no binding (tested: 3200 nM (highest Fab concentration))
binding result [3]: no binding (tested: 3200 nM (highest Fab concentration))

B5: 54-4H03 Fab (Fab, V domains shown)
VH: QVQLQQSGPGLVKPSQTLSLTCAISGDSVSSNSVAWNWIRQSPSRGLEWLGRTYFRSKWYTDYAESLKSRMTINPDTSKNEFSLHLKSVTSDDTAVYYCVRGIIFNWPLGGWSFDLWGRGTLVSVSS
VL: EIVLTQSPGTLSLSPGDSATLSCRASQSVASSYLAWYQQKPGQSPRLLIYATINRAADIPDRFSGSGSGTDFALTISRLEPEDFAVYYCQQFDSSSMYTFGQGTKLEIT
binding result [6]: binds

B6: 54-4H03 (clonotype A), IgG (antibody, V domains shown)
VH: QVQLQQSGPGLVKPSQTLSLTCAISGDSVSSNSVAWNWIRQSPSRGLEWLGRTYFRSKWYTDYAESLKSRMTINPDTSKNEFSLHLKSVTSDDTAVYYCVRGIIFNWPLGGWSFDLWGRGTLVSVSS
VL: EIVLTQSPGTLSLSPGDSATLSCRASQSVASSYLAWYQQKPGQSPRLLIYATINRAADIPDRFSGSGSGTDFALTISRLEPEDFAVYYCQQFDSSSMYTFGQGTKLEIT
binding result [5]: binds
binding result [4]: binds

B7: 54-4H03 VH G100cT/S100fY, IgG (54-4H03 light chain) (antibody, V domains shown)
VH: QVQLQQSGPGLVKPSQTLSLTCAISGDSVSSNSVAWNWIRQSPSRGLEWLGRTYFRSKWYTDYAESLKSRMTINPDTSKNEFSLHLKSVTSDDTAVYYCVRGIIFNWPLTGWYFDLWGRGTLVSVSS
VL: EIVLTQSPGTLSLSPGDSATLSCRASQSVASSYLAWYQQKPGQSPRLLIYATINRAADIPDRFSGSGSGTDFALTISRLEPEDFAVYYCQQFDSSSMYTFGQGTKLEIT
binding result [7]: no binding
binding result [4]: no binding

B8: 54-1B01 (antibody, V domains shown)
VH: QVQLQQSGPGVVKPSQSLALTCAISGDSVSNDRVAWIWIRQSPSRGLEWLGRTYYRSKWYNDYANSVRGRMTINPDTSKNQFSLNLDSVTPDDTAVYYCARGMIFGRPLTGWYFDFWGRGTLVTVSS
VL: EIVLTQSPGTLSLSAGERVTLFCRASQHVSSGYLAWYQQKPGQAPRLLIYGATNRATGIPDRFSGSGSGTDFALTISRLEPEDFAVYYCQQFDSSSMYTFGQGTKLEIK
binding result [8]: binds
binding result [9]: binds

B9: early intermediate of clonotype A, IgG (antibody, V domains shown)
VH: QVQLQQSGPGLVKPSQTLSLTCAISGDSVSSNSAAWNWIRQSPSRGLEWLGRTYYRSKWYNDYAVSVKSRITINPDTSKNQFSLQLNSVTPEDTAVYYCARGMIFNWPLGGWSFDLWGRGTLVTVSS
VL: EIVLTQSPGTLSLSPGERATLSCRASQSVSSSYLAWYQQKPGQAPRLLIYGASSRATGIPDRFSGSGSGTDFTLTISRLEPEDFAVYYCQQFDSSSMYTFGQGTKLEIK
binding result [5]: binds

B10: 54-1G07 (clonotype A), IgG (antibody, V domains shown)
VH: QVQLQQSGPGLVKPSQTLALTCGISGDTVSNNRVAWNWIRQSPSRGLEWLGRTYYRSKWYSDYSKSVTGRMTINPDTSKNQFSLHLDSVTPADTAVYYCARGMIFGWPLTGWYFDLWGRGTLVTVSS
VL: EIVLTQSPGTLSLSPGERVTLLCRASHHVSSGYLAWYQQKPGQAPRLLIYGATNRATGIPDRFSGSGSGTDFALTISRLEPEDFAVYYCQQFDSSSMYTFGQGTKLEIK
notes: IgG format
binding result [5]: binds
binding result [7]: binds

B11: 54-1G07 Fab (Fab, V domains shown)
VH: QVQLQQSGPGLVKPSQTLALTCGISGDTVSNNRVAWNWIRQSPSRGLEWLGRTYYRSKWYSDYSKSVTGRMTINPDTSKNQFSLHLDSVTPADTAVYYCARGMIFGWPLTGWYFDLWGRGTLVTVSS
VL: EIVLTQSPGTLSLSPGERVTLLCRASHHVSSGYLAWYQQKPGQAPRLLIYGATNRATGIPDRFSGSGSGTDFALTISRLEPEDFAVYYCQQFDSSSMYTFGQGTKLEIK
binding result [3]: no binding (tested: 3200 nM (highest Fab concentration))

B12: 54-1G05 (clonotype B), IgG (antibody, V domains shown)
VH: QVQLQQSGPRLVKPSQTLSLTCAISGDSVSSSSAVWTWIRQSPSRGLEWLGRTYYRSKWYDDYAVSVQGRITINPDTSKNQISLQLNSVTPDDTAVYYCARSSINIFGVFVMAMDVWGQGTAVTVSS
VL: EIVLTQSPGTLSLSPGERVTLSCRASQTVYNSYLAWYQQKPGQAPTLLIYGTSTRATGVPDRFSGSGSGTVFTLTISRLEPEDFAVYFCQQYSTSPRALTFGGGTKVEIK
notes: source: Expi293 cells, transfected, purified from the supernatant (Protein A)
binding result [5]: binds
binding result [10]: binds
binding result [7]: binds
binding result [4]: binds
binding result [11]: binds
binding result [12]: binds
binding result [13]: binds
